In US10030065:

Target: purified folded MHC-complex (Example 29)
Assay: sandwich ELISA, W6/32 coat, HRP rabbit anti-β2m detection

For “W6/32 mouse-anti-HLA-ABC antibody (Dako M0736)”, the OD450 against the negative control β2m (fold) was > 6 fold.
